Measured values reported in patent publication US20190271705A1.
Substitutions are numbered along the chain they refer to. Names and notes keep the numbering of the source.

B1: wild-type Fyn SH2 domain (hexa-histidine-tagged construct, SEQ ID NO:4) (protein)
chain: MKIEEHHHHHHSSGRENLYFQGGAAQPAAPVDSIQAEEWYFGKLGRKDAERQLLSFGNPRGTFLIRESETTKGAYSLSIRDWDDMKGDHVKHYKIRKLDNGGYYITTRAQFETLQQLVQHYSERAAGLSSRLVVPSHKGAAA
B2: T8I/S10A/K15L variant Fyn SH2 domain (designed binder)
chain: B1 chain with T71I, S76A, K94L
B3: T8V variant Fyn SH2 domain (designed binder)
chain: B1 chain with T71V

Key:
[1] = molecular target: seven peptides (fluorescein-labeled pTyr-containing peptides of the fluorescence polarization assay); experiment: fluorescence polarization in solution, SH2 domain titrated against fluorescein-labeled peptide
[2] = molecular target: seven peptides (fluorescein-labeled pTyr-containing peptides of the fluorescence polarization assay); experiment: fluorescence polarization in solution; average over seven peptides, reference wild-type Fyn SH2 domain

Binder	Kd [1]	average fold affinity increase (Kd[wild-type] divided by Kd[variant]) [2]
B1	10 µM	–
B2	–	86.4 fold
B3	–	1.4 fold
